B1: Geobacillus kaustophilus HTA426 wild-type glycine oxidase (WT-GOX), SEQ ID NO: 1 (Geobacillus kaustophilus HTA426) (protein)
chain: MTHRYDVAIVGGGVIGAAIGFELAKRRHRVAIFEKGTMGSGASSAAAGMLGAQSEFSTSSPLVPLALQSRALMPALAEELRERTGIDIGLVEKGLIKLATTEEEADDLYRHYTFWRGIGEPVQWLTKGEALEMEPRLAAEALAGAMYIPGDGQVSAPDLAAALAYAAASAGACLYEYTEVFDIRSDSSGHVLDTTGGTFAAEAVVIASGAWAARLGARVGLSLSVYPVKGECVMVRAPVPLLQTTVFAKNGCYIVPKSGNRLLIGATSTPGTFDRRVSAGGVMNLLHRAAHLVPDIEQAEWVASWSGIRPQTEDGLPYLGEHPERRGLFVAAGHYRNGILLSPLTGLLVADLVERKETAFDLAPFSLTRHIGKVGVE
B2: Geobacillus kaustophilus HTA426 glycine oxidase variant V-GOX1, 251st glycine of SEQ ID NO: 1 substituted with glutamine (Gly251Gln; SEQ ID NO: 3 with Xaa251 = … (protein)
chain: MTHRYDVAIVGGGVIGAAIGFELAKRRHRVAIFEKGTMGSGASSAAAGMLGAQSEFSTSSPLVPLALQSRALMPALAEELRERTGIDIGLVEKGLIKLATTEEEADDLYRHYTFWRGIGEPVQWLTKGEALEMEPRLAAEALAGAMYIPGDGQVSAPDLAAALAYAAASAGACLYEYTEVFDIRSDSSGHVLDTTGGTFAAEAVVIASGAWAARLGARVGLSLSVYPVKGECVMVRAPVPLLQTTVFAKNQCYIVPKSGNRLLIGATSTPGTFDRRVSAGGVMNLLHRAAHLVPDIEQAEWVASWSGIRPQTEDGLPYLGEHPERRGLFVAAGHYRNGILLSPLTGLLVADLVERKETAFDLAPFSLTRHIGKVGVE

Key:
[1] = substrate: NCC(=O)O; experiment: purified protein, by the assay type; format: biochemical, Geobacillus kaustophilus HTA426; conditions: other: substrate glycine, 37° C., pyrophosphate, pH 8.5, WT-GOX, 60.0 °C
Excerpt: HTA426 is available, for example, from the National Research and Development Agency, RIKEN BioResource Research Center (RIKEN BRC) Microbe Division (JCM) (JCM12893).
However, a plasmid vector of pET-15b was used as a vector, and E. coli BL21 (DE3) was used as a host cell (host).
For convenience of explanation, the wild-type glycine oxidase is abbreviated as “WT-GOX”.

[2] = substrate: NCC(=O)O; experiment: purified protein, by the assay type; format: biochemical, Geobacillus kaustophilus HTA426; conditions: other: substrate glycine, 37° C., pyrophosphate, pH 8.5, purified V-GOX1, 70.0 °C
Protocol: For convenience of explanation, the mutant glycine oxidase is abbreviated as “V-GOX” in this example.
The enzyme activity in Table 2 is shown as the ratio (times) of the enzyme reaction rate (use of crude enzyme solution) of V-GOX when WT-GOX is used as reference (1).
Therefore, after purifying this V-GOX1, the molecular weight (SDS-PAGE), the optimum temperature, the optimum pH, thermal stability, pH stability, the specific activity, and the kinetic constant Km were evaluated. The results of the specific activity, thermal stability, and the kinetic constant Km are shown in Table 1 above, the specific activity is shown in FIG. 3A, and thermal stability is shown in FIG. 3B, and further, evaluation results of enzyme properties of V-GOX1 containing them are also shown in Table 3 together with the conditions.

Protein	Km [1] [mM mM]	Km [2] [mM mM]
B1	0.25	
B2		0.20
